B1: Peripheral plasma membrane protein CASK, residues 488 to 569; numbered along this chain, O14936 (parent)
chain: VRLVQFQKNTDEPMGITLKMNELNHCIVARIMHGGMIHRQGTLHVGDEIREINGISVANQTVEQLQKMLREMRGSITFKIVP

Variants of: B1
Assay: abundance fitness (aPCA) (normalised: wild type 0, dead -1); higher = more abundant; growth selection in yeast, the domain comes from the species named
Settings: Homo sapiens

Abundance fitness: each site, then its substitutions
V1: A -0.119 | C -0.056 | D 0.055 | E 0.03 | F -0.026 | G -0.037 | H -0.207 | I 0.085 | K -0.046 | L -0.098 | M 0.099 | N 0.037 | P -0.376 | Q -0.189 | R -0.177 | S -0.095 | T 0.015 | W -0.122 | Y 0.017
R2: A -0.149 | C -0.09 | D -0.149 | E -0.028 | G -0.225 | H -0.05 | I -0.029 | K -0.055 | L -0.159 | M 0.019 | N 0.091 | S -0.084 | T -0.038 | V -0.089 | Y -0.002
L3: A -0.14 | C -0.198 | D -0.141 | E 0.094 | F 0.007 | G -0.307 | I 0.085 | K -0.026 | N -0.13 | P -0.322 | Q 0.018 | S -0.026 | T 0.033 | V 0.002 | W -0.113 | Y -0.015
V4: A -0.199 | C -0.165 | D -0.842 | F -0.094 | G -0.677 | H -0.235 | I -0.091 | K -0.259 | L -0.024 | M -0.138 | Q -0.565 | R -0.265 | S -0.392 | T -0.239 | W -0.307 | Y -0.19
Q5: A 0.07 | D -0.038 | E 0.149 | F -0.041 | G 0 | H -0.049 | I -0.068 | K 0.128 | L -0.092 | M 0.065 | R 0.074 | S 0.075 | T 0.117 | V 0.029 | W -0.106 | Y -0.024
F6: A -0.065 | C -0.01 | D -0.712 | E -0.629 | G -0.405 | H -0.181 | I -0.028 | K -0.674 | L 0.053 | M 0.052 | N -0.708 | P -0.924 | Q -0.589 | R -0.673 | S -0.321 | T -0.129 | V 0.061 | W -0.251 | Y -0.095
Q7: A -0.025 | C 0.021 | D 0.079 | E 0.048 | F -0.021 | H 0.009 | I 0.074 | K -0.017 | L -0.027 | N 0.02 | P -0.177 | R -0.025 | S -0.042 | T 0.041 | V 0.001 | W -0.037 | Y 0.021
K8: A -0.071 | C -0.326 | D -0.403 | E -0.505 | F -0.291 | G -0.242 | I 0.002 | L -0.028 | M -0.087 | N -0.098 | P -0.256 | Q 0.004 | R -0.021 | S -0.169 | T -0.179 | V -0.007 | W -0.136 | Y -0.093
N9: A -0.003 | C -0.092 | D 0.024 | E 0.055 | F -0.035 | G -0.027 | H -0.027 | I -0.015 | L 0.019 | M -0.012 | Q -0.008 | R -0.031 | S -0.009 | T 0.024 | V 0.005 | W -0.081 | Y -0.088
T10: A -0.075 | C 0.066 | D -0.026 | E -0.07 | F 0.012 | G -0.01 | H -0.064 | I -0.081 | K -0.029 | L -0.05 | M -0.007 | N -0.075 | P -0.045 | Q -0.111 | V -0.113 | W -0.086 | Y -0.097
D11: A -0.027 | C -0.136 | E -0.05 | F -0.251 | G -0.034 | H 0.075 | I -0.142 | K -0.054 | L -0.092 | M -0.11 | N 0.08 | P -0.069 | Q 0.021 | R -0.023 | S 0.009 | T 0.055 | V -0.072 | W -0.175 | Y -0.22
E12: A -0.08 | D -0.101 | F -0.231 | G -0.059 | H -0.154 | I -0.09 | L -0.131 | M -0.016 | N -0.277 | P -0.757 | Q -0.063 | R -0.143 | S -0.089 | V -0.139 | Y -0.237
P13: A -0.065 | C 0.024 | D -0.028 | E -0.119 | F -0.126 | G -0.024 | H -0.054 | I -0.154 | K 0.055 | L -0.125 | M -0.1 | N -0.021 | Q -0.183 | R -0.183 | S -0.036 | T -0.041 | V -0.046 | W -0.102 | Y -0.154
M14: A -0.078 | C -0.127 | F -0.01 | I 0.055 | K -0.784 | L 0.001 | N -0.337 | Q -0.531 | R -0.858 | S -0.149 | T -0.165 | V -0.017 | W -0.042 | Y -0.206
G15: A -0.395 | C -0.556 | D -0.276 | E -0.201 | F -0.427 | H -0.549 | K -0.538 | L -0.62 | N -0.398 | P -0.266 | Q -0.362 | R -0.467 | S -0.493 | V -0.682 | W -0.374 | Y -0.776
I16: A -0.115 | C -0.143 | D -0.933 | E -0.932 | F 0.109 | G -0.98 | K -1.14 | L 0.088 | N -0.654 | P -0.765 | Q -0.849 | S -1.08 | T -0.659 | V -0.081 | W -0.044 | Y -0.593
T17: A -0.079 | C -0.045 | E -0.019 | F -0.071 | G -0.023 | H 0.031 | I 0.092 | K 0.015 | L 0.019 | M -0.046 | N -0.09 | P -1.07 | Q -0.001 | R -0.031 | S -0.051 | V 0.003
L18: A -0.761 | C -0.262 | D -1.13 | E -0.909 | F 0.04 | H -0.877 | I -0.055 | K -0.796 | M -0.128 | N -0.918 | P -1.2 | Q -0.797 | R -0.986 | S -0.699 | T -0.646 | V -0.088 | W -0.492 | Y -0.277
K19: A 0.022 | C -0.089 | D -0.016 | E -0.029 | F -0.041 | G 0.025 | H -0.01 | I -0.102 | L -0.026 | M -0.071 | N -0.037 | P -0.999 | Q -0.016 | R -0.017 | T -0.009 | V -0.008 | W -0.195 | Y -0.01
M20: A -0.128 | C -0.19 | D -0.489 | E -0.302 | F 0.026 | G -0.453 | H -0.038 | I -0.036 | K 0.034 | L -0.016 | N -0.16 | P -0.325 | Q -0.059

Reference: the Human Domainome abundance scans (Beltran et al. 2025)
